The source of these data is US20240002495A1 (MITSUBISHI TANABE PHARMA, published 2024).

Where a chain is given by its changes, count along the chain named.

The target of assay [1] is T1, biotinylated 6His tag-AviTag-linked mature human IL-33 (residues 112 to 270) (human, UniProt O95760 112-270, biotin on the AviTag portion (BirA)).
T1 construct: made in E. coli; also called biotinylated human IL-33 protein
T1 sequence: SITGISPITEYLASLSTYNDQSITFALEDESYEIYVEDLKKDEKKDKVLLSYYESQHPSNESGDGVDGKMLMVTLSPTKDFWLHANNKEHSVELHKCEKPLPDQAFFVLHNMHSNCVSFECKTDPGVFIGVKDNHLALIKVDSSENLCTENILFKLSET
The assay is described as follows: SPR, IL-33 on chip, Fab supernatant as analyte. The method, then: (§1) The library after the enrichment was used to construct a library of Escherichia coli secreting and expressing Fab. The culture supernatants of several hundreds of clones of Escherichia coli were subjected to measurement of dissociation rate constant (koff) by surface plasmon resonance (SPR) (ProteOn XPR36, available from Bio-Rad Laboratories, Inc.). The biotinylated human IL-33 protein (4 μg/mL) and cynomolgus monkey IL-33 protein (4 μg/mL) were loaded as ligands on a sensor chip (NLC sensor chip, available from Bio-Rad Laboratories, Inc.), to immobilize the human IL-33 protein at an amount equivalent to 1300 to 1600 RU, and the cynomolgus monkeyIL-33 protein at an amount equivalent to 1100 to 1500 RU. The culture supernatant of Escherichia coli was then loaded thereon as analyte to obtain a sensorgram with association phase of one minute and dissociation phase of 10 to 30 minutes. The sensorgram was subjected to interspot correction and blank correction using an SPR data analysis program (ProteOn Manager v3.1.0, available from Bio-Rad Laboratories, Inc.), and then values of koff were determined by off-rate analysis of Langmuir model.
A general note: Surface plasmon resonance follows binding to a sensor surface in real time, without labels.

The target in assay [2] is T2, 6His-AviTag-linked cynomolgus monkey IL-33 (residues 112 to 269) (cynomolgus monkey, UniProt O95760 112-269 (human entry), biotin on the AviTag portion (BirA) in the SPR of Example 7; used without biotinylation in Example 10).
T2 construct: GenBank EHH57404 printed; also called cynomolgus monkey IL-33 protein; mature cynomolgus monkey IL-33
T2 chain: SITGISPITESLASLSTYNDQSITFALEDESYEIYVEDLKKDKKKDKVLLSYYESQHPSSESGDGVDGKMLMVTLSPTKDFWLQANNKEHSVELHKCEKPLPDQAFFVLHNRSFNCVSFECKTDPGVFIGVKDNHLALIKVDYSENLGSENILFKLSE
The assay is described as follows: SPR, IL-33 on chip, Fab supernatant as analyte. On the procedure: as §1

B1: A25-2D01 (Fab) (Fab, V domains shown)
VH: EVQLLESGGGLVQPGGSLRLSCAASGFTFSNYYMHWVRQAPGKGLEWVSSISARSSYIYYADSVKGRFTISRDNSKNTLYLQMNSLRAEDTAVYYCARLATRNNAFDIWGQGTLVTVSS
VL: QSVLTQPPSASGTPGQRVTISCSGSSSNIGRNAVNWYQQLPGTAPKLLIYASNMRVIGVPDRFSGSKSGTSASLAISGLRSEDEADYYCAAWDDSQKAWVFGGGTKLTVL
notes: Fab secreted by E. coli, tested as culture supernatant; also called V9
As for B1, in assay [1], the “Human IL-33 Binding Amount (RU)” value came to 950 RU and the dissociation rate constant (koff) (in general, a measure of how fast the partners let go of each other) is 1e-05 s⁻¹. For the same molecule, in assay [2], the “Cynomolgus Monkey IL-33 Binding Amount (RU)” value came out at 832 RU and the dissociation rate constant (koff) stood at 1e-05 s⁻¹.

B2: A28-2F01 (Fab) (Fab, V domains shown)
VH: B1 VH with A53S, Y57H, I58Q, D62G, A100G, T101L, N103H, N104D
VL: B1 VL with R31H, N35W, V56R, I57M, W99V
notes: Fab secreted by E. coli, tested as culture supernatant; also called V26
With B2, in assay [1], the “Human IL-33 Binding Amount (RU)” value was 289 RU and the off-rate constant (koff) is 1e-05 s⁻¹. Further, in assay [2], the “Cynomolgus Monkey IL-33 Binding Amount (RU)” value was 258 RU and the koff worked out at 1e-05 s⁻¹.

B3: A26-2A05 (Fab) (Fab, V domains shown)
VH: B1 VH with N103H, N104G
VL: B1 VL with R31N, V56R, I57M, W99F
notes: Fab secreted by E. coli, tested as culture supernatant; also called V19
In the case of B3, in assay [1], the “Human IL-33 Binding Amount (RU)” value was 153 RU and the koff was 1e-05 s⁻¹. For the same molecule, in assay [2], the “Cynomolgus Monkey IL-33 Binding Amount (RU)” value was 147 RU and the dissociation rate constant (koff) was determined as 1e-05 s⁻¹.

B4: A25-3H04 (Fab) (Fab, V domains shown)
VH: B1 VH with N31R, R54Q, Y57H, K65E, N103Q
VL: B1 VL with V56R, I57S, A90S, A98V, W99V
notes: Fab secreted by E. coli, tested as culture supernatant; also called V17
As to B4, in assay [1], the “Human IL-33 Binding Amount (RU)” value worked out at 0.62 RU and the off-rate constant (koff) was 1e-05 s⁻¹. In assay [2], the “Cynomolgus Monkey IL-33 Binding Amount (RU)” value came to 179 RU and the dissociation rate constant (koff) is 1e-05 s⁻¹.

B5: A28-2H06 (Fab) (Fab, V domains shown)
VH: B1 VH with R54L, I58R, N103R, N104V
VL: B1 VL with R31N, V56R, I57L, W99L
notes: Fab secreted by E. coli, tested as culture supernatant; also called V28
B5: in assay [1], the “Human IL-33 Binding Amount (RU)” value is 349 RU and the koff was determined as 1e-05 s⁻¹. In assay [2], the “Cynomolgus Monkey IL-33 Binding Amount (RU)” value turned out to be 317 RU and the koff stood at 1e-05 s⁻¹.

B6: A25-2E04 (Fab) (Fab, V domains shown)
VH: B1 VH
VL: B1 VL with S26C, A90E, A98G, W99V
notes: Fab secreted by E. coli, tested as culture supernatant; also called V11
For B6, in assay [1], the “Human IL-33 Binding Amount (RU)” value stood at 195 RU and the koff came to 1.27e-05 s⁻¹. Moreover, in assay [2], the “Cynomolgus Monkey IL-33 Binding Amount (RU)” value is 199 RU and the off-rate (koff) was 1e-05 s⁻¹.

B7: A28-1G07 (Fab) (Fab, V domains shown)
VH: B1 VH with I58R, N103H, N104S
VL: B1 VL with R31H, N35S, V56R, I57L, A90G, A98V, W99V
notes: Fab secreted by E. coli, tested as culture supernatant; also called V24
Take B7: in assay [1], the “Human IL-33 Binding Amount (RU)” value came out at 165 RU and the koff turned out to be 1e-05 s⁻¹. In addition, in assay [2], the “Cynomolgus Monkey IL-33 Binding Amount (RU)” value came to 173 RU and the off-rate constant (koff) was determined as 1.05e-05 s⁻¹.

B8: A27-1A06 (Fab) (Fab, V domains shown)
VH: B1 VH with I58R, N103H, N104L
VL: B1 VL with R31N, V56R, I57P, A98V, W99F
notes: Fab secreted by E. coli, tested as culture supernatant; also called V21
Consider B8, for which, in assay [1], the “Human IL-33 Binding Amount (RU)” value came to 306 RU and the koff was determined as 1e-05 s⁻¹. Moreover, in assay [2], the “Cynomolgus Monkey IL-33 Binding Amount (RU)” value amounted to 320 RU and the off-rate (koff) is 1e-05 s⁻¹.

B9: A27-1C06 (Fab) (Fab, V domains shown)
VH: B1 VH with N103H, N104S
VL: B1 VL with R31N, V56R, I57L, A90G, W99F
notes: Fab secreted by E. coli, tested as culture supernatant; also called V22
With B9, in assay [1], the “Human IL-33 Binding Amount (RU)” value was 294 RU and the koff turned out to be 1e-05 s⁻¹. Besides, in assay [2], the “Cynomolgus Monkey IL-33 Binding Amount (RU)” value turned out to be 304 RU and the koff came to 1.14e-05 s⁻¹.

B10: A28-2G07 (Fab) (Fab, V domains shown)
VH: B1 VH with N31S, N103R, N104I
VL: B1 VL with V56R, I57P, A90S, W99G
notes: Fab secreted by E. coli, tested as culture supernatant; also called V27
As to B10, in assay [1], the “Human IL-33 Binding Amount (RU)” value came out at 289 RU and the off-rate constant (koff) amounted to 1e-05 s⁻¹. Besides, in assay [2], the “Cynomolgus Monkey IL-33 Binding Amount (RU)” value was 259 RU and the koff is 1.14e-05 s⁻¹.

B11: A25-3G05 (Fab) (Fab, V domains shown)
VH: B1 VH with N31H, R54L, K65R, N103R, N104D
VL: B1 VL with R31N, V56G, I57L, A90G, A98V, W99F
notes: Fab secreted by E. coli, tested as culture supernatant; also called V16
Regarding B11, in assay [1], the “Human IL-33 Binding Amount (RU)” value is 135 RU and the koff turned out to be 1.34e-05 s⁻¹. Moreover, in assay [2], the “Cynomolgus Monkey IL-33 Binding Amount (RU)” value is 143 RU and the koff was determined as 2.02e-05 s⁻¹.

B12: A26-2B01 (Fab) (Fab, V domains shown)
VH: B1 VH with N103H
VL: B1 VL with R31N, V56R, I57L
notes: Fab secreted by E. coli, tested as culture supernatant; also called V20
B12: in assay [1], the “Human IL-33 Binding Amount (RU)” value was determined as 364 RU and the koff amounted to 1e-05 s⁻¹. For the same molecule, in assay [2], the “Cynomolgus Monkey IL-33 Binding Amount (RU)” value was 363 RU and the koff is 1e-05 s⁻¹.

B13: A26-1F02 (Fab) (Fab, V domains shown)
VH: B1 VH with I58L, N103H, N104V
VL: B1 VL with R31N, V56R, I57P, A90E, W99V
notes: Fab secreted by E. coli, tested as culture supernatant; also called V18
Regarding B13, in assay [1], the “Human IL-33 Binding Amount (RU)” value came out at 96 RU and the off-rate constant (koff) is 1e-05 s⁻¹. In assay [2], the “Cynomolgus Monkey IL-33 Binding Amount (RU)” value was 100 RU and the koff turned out to be 1e-05 s⁻¹.

B14: A28-1C08 (Fab) (Fab, V domains shown)
VH: B1 VH with N31R, N103R, N104D
VL: B1 VL with N35S, V56R, I57L, A90W, W99V
notes: Fab secreted by E. coli, tested as culture supernatant; also called V23
As to B14, in assay [1], the “Human IL-33 Binding Amount (RU)” value was 156 RU and the koff stood at 1e-05 s⁻¹. In addition, in assay [2], the “Cynomolgus Monkey IL-33 Binding Amount (RU)” value is 144 RU and the koff was found to be 1e-05 s⁻¹.

B15: A25-2H11 (Fab) (Fab, V domains shown)
VH: B1 VH
VL: B1 VL with R31S, N35S, V56G, I57S, A98V, W99V
notes: Fab secreted by E. coli, tested as culture supernatant; also called V14
Turning to B15, in assay [1], the “Human IL-33 Binding Amount (RU)” value worked out at 534 RU and the koff was found to be 1.22e-05 s⁻¹. Also, in assay [2], the “Cynomolgus Monkey IL-33 Binding Amount (RU)” value came to 492 RU and the off-rate (koff) was 2.57e-05 s⁻¹.

B16: A28-2C06 (Fab) (Fab, V domains shown)
VH: B1 VH with D62G, A100G, N103R, N104V
VL: B1 VL with V56G, I57M, A90S, A98V, W99V
notes: Fab secreted by E. coli, tested as culture supernatant; also called V25
Take B16: in assay [1], the “Human IL-33 Binding Amount (RU)” value was found to be 123 RU and the koff was 1e-05 s⁻¹. In assay [2], the “Cynomolgus Monkey IL-33 Binding Amount (RU)” value stood at 134 RU and the koff is 1e-05 s⁻¹.
